These results are taken from publication PMC5606850, “Acidic C-terminal domains autoregulate the RNA chaperone Hfq” (eLife, 2017).

*: point of attachment. FITC = O=C1OC2(c3ccc(O)cc3Oc3cc(O)ccc32)c2ccc(NC(=S)*)cc21; Ahx = NCCCCCC(=O)O

Data set [1] concerns the target T1, Hfq102 (wild-type Hfq) (Escherichia coli, UniProt P0A6X3 1-102). As to the kind of experiment: EMSA; 33.3 nM hexamer, 10 C; less ternary complex than Hfq65; Anisotropy: 10 mM Tris-HCl pH 7.5, 50 mM NaCl, 50 mM KCl, 30 C; CTD-FITC competition: 50 mM Tris-HCl pH 7.5, 30 C; pUC19 EMSA: 40 mM Tris-HCl pH 7.5, 0.14 mM EDTA, 35 mM NH4Cl, 3.7% glycerol, 25 C (competition legend 30 C). As to conditions: protein: recombinant; tags: untagged; chain copies: 6; label: 32P on ChiX; partial RNA-RNA duplex. (Mobility shift assays separate free from complexed probe on a gel.)

In data set [2] the target is T2, Hfq65 (Hfq core, CTD deleted) (Escherichia coli, UniProt P0A6X3 1-65). Description: EMSA; 33.3 nM hexamer, 10 C; most stable ternary complex; Anisotropy: 10 mM Tris-HCl pH 7.5, 50 mM NaCl, 50 mM KCl, 30 C; CTD-FITC competition: 50 mM Tris-HCl pH 7.5, 30 C; pUC19 EMSA: 40 mM Tris-HCl pH 7.5, 0.14 mM EDTA, 35 mM NH4Cl, 3.7% glycerol, 25 C (competition legend 30 C). As to conditions: protein: recombinant; tags: untagged; chain copies: 6; label: 32P on ChiX; partial RNA-RNA duplex.

The target of the next data set is T3, E. coli Hfq65-R16A (E. coli, UniProt P0A6X3 1-65, R16A).
T3 construct: Hfq, E. coli, core residues 1-65, rim mutation R16A; Untagged; made by site-directed mutagenesis of pET21b-Hfq
As to the kind of experiment: fluorescence polarisation; 45 nM FITC-labelled peptide titrated with Hfq65 or variant (0–100 µM Hfq monomer), 50 mM Tris·HCl pH 7.5 (low salt), 30 °C, duplicate, single-site isotherm; Kd in Hfq monomer. The following applies: both partners purified. (In general: In fluorescence polarisation assays a small probe gives low polarisation when free and higher when bound to something large.)

In another data set the target is T4, E. coli Hfq65-R19D (E. coli, UniProt P0A6X3 1-65, R19D).
T4 construct: Hfq, E. coli, core residues 1-65, rim mutation R19D; Untagged; made by site-directed mutagenesis of pET21b-Hfq
The data set is described as above. As to conditions: both partners purified.

In another data set the target is T5, E. coli Hfq65-Q35A (E. coli, UniProt P0A6X3 1-65, Q35A).
T5 construct: Hfq, E. coli, core residues 1-65, mutation Q35A; Untagged; made by site-directed mutagenesis of pET21b-Hfq
The data set is described as above. As to conditions: both partners purified.

A further data set deals with T6, E. coli Hfq65-K47A (E. coli, UniProt P0A6X3 1-65, K47A).
T6 construct: Hfq, E. coli, core residues 1-65, rim mutation K47A; Untagged; made by site-directed mutagenesis of pET21b-Hfq
The description is as above. The following applies: both partners purified.

Data set [3] concerns the target T1, Hfq102 (wild-type Hfq). Description: fluorescence anisotropy; Hill 1.4; asterisked value, footnote not in material (possibly earlier work); Anisotropy: 10 mM Tris-HCl pH 7.5, 50 mM NaCl, 50 mM KCl, 30 C; CTD-FITC competition: 50 mM Tris-HCl pH 7.5, 30 C; pUC19 EMSA: 40 mM Tris-HCl pH 7.5, 0.14 mM EDTA, 35 mM NH4Cl, 3.7% glycerol, 25 C (competition legend 30 C). As to conditions: protein: recombinant; tags: untagged; chain copies: 6; label: Cy3; hairpin with 5' overhang.

Data set [4] addresses T1, Hfq102 (wild-type Hfq). As to the kind of experiment: competition; vs pUC19 EMSA; good; Anisotropy: 10 mM Tris-HCl pH 7.5, 50 mM NaCl, 50 mM KCl, 30 C; CTD-FITC competition: 50 mM Tris-HCl pH 7.5, 30 C; pUC19 EMSA: 40 mM Tris-HCl pH 7.5, 0.14 mM EDTA, 35 mM NH4Cl, 3.7% glycerol, 25 C (competition legend 30 C). The following applies: protein: recombinant; tags: untagged; chain copies: 6.

The target in data set [5] is T1, Hfq102 (wild-type Hfq). Description: fluorescence anisotropy; Hill 0.7; asterisked value, footnote not in material (possibly earlier work); Anisotropy: 10 mM Tris-HCl pH 7.5, 50 mM NaCl, 50 mM KCl, 30 C; CTD-FITC competition: 50 mM Tris-HCl pH 7.5, 30 C; pUC19 EMSA: 40 mM Tris-HCl pH 7.5, 0.14 mM EDTA, 35 mM NH4Cl, 3.7% glycerol, 25 C (competition legend 30 C). The following applies: protein: recombinant; tags: untagged; chain copies: 6; label: 5' FAM.

For data set [6], the target named is T2, Hfq65 (Hfq core, CTD deleted). As to the kind of experiment: fluorescence anisotropy; Hill 0.6; asterisked value, footnote not in material (possibly earlier work); Anisotropy: 10 mM Tris-HCl pH 7.5, 50 mM NaCl, 50 mM KCl, 30 C; CTD-FITC competition: 50 mM Tris-HCl pH 7.5, 30 C; pUC19 EMSA: 40 mM Tris-HCl pH 7.5, 0.14 mM EDTA, 35 mM NH4Cl, 3.7% glycerol, 25 C (competition legend 30 C). The following applies: protein: recombinant; tags: untagged; chain copies: 6; label: 5' FAM.

For data set [7], the target named is T1, Hfq102 (wild-type Hfq). Description: competition; vs pUC19 EMSA; strong; Anisotropy: 10 mM Tris-HCl pH 7.5, 50 mM NaCl, 50 mM KCl, 30 C; CTD-FITC competition: 50 mM Tris-HCl pH 7.5, 30 C; pUC19 EMSA: 40 mM Tris-HCl pH 7.5, 0.14 mM EDTA, 35 mM NH4Cl, 3.7% glycerol, 25 C (competition legend 30 C). As to conditions: protein: recombinant; tags: untagged; chain copies: 6.

Data set [8] concerns RNA molecular beacon and Target RNA. The following applies: ref Zheng et al., 2016; cited from earlier work.
The target of data set [9] is T1, Hfq102 (wild-type Hfq). Description: fluorescence anisotropy; Hill 1.2; Anisotropy: 10 mM Tris-HCl pH 7.5, 50 mM NaCl, 50 mM KCl, 30 C; CTD-FITC competition: 50 mM Tris-HCl pH 7.5, 30 C; pUC19 EMSA: 40 mM Tris-HCl pH 7.5, 0.14 mM EDTA, 35 mM NH4Cl, 3.7% glycerol, 25 C (competition legend 30 C). As to conditions: protein: recombinant; tags: untagged; chain copies: 6; label: 5' FAM on strand 1; blunt.

For data set [10], the target named is T2, Hfq65 (Hfq core, CTD deleted). As to the kind of experiment: competition; displaces CTD-FITC peptide; stronger than length trend; Anisotropy: 10 mM Tris-HCl pH 7.5, 50 mM NaCl, 50 mM KCl, 30 C; CTD-FITC competition: 50 mM Tris-HCl pH 7.5, 30 C; pUC19 EMSA: 40 mM Tris-HCl pH 7.5, 0.14 mM EDTA, 35 mM NH4Cl, 3.7% glycerol, 25 C (competition legend 30 C). The following applies: protein: recombinant; tags: untagged; chain copies: 6; minRCRB-like hairpin at 5' end.

B1: ChiX·chiP sRNA-mRNA pair (mixed)
RNA 1: GGGACACCGUCGCUUAAAGUGACGGCAUAAUAAUAAAAAAAUGAAAUUCCUCUUUGACGGGCCAAUAGCGAUAUUGGCCAUUUUUUU
RNA 2: GUAGUCAGCGAGACUUUUCUCAACGCUACUUUUUUAAUUUUUAUUUUUUCGCUGUUCACCUUUGGUGCAGCAAUUUAUACGUCAAAGAGGAUUAACCCAUGCGUACGUUUAGUGGC
As to B1, the binding result (with Hfq102 (wild-type Hfq) [1]; in data set [2]) was “binds” each time.

B2: CTD-FITC (fluorescently-labeled E. coli Hfq CTD peptide) (peptide)
peptide: {FITC-Ahx}-NNAGGGTSSNYHHGSSAQNTSAQQDSEETE-OH
notes: Hfq, E. coli, C-terminal domain peptide; lacks residues 65-72 of the CTD region; also called CTD-FITC peptide
As to B2, the binding result with E. coli Hfq65-R16A, with E. coli Hfq65-R19D, with E. coli Hfq65-Q35A and with E. coli Hfq65-K47A was “binds” each time. Take CUUCCGUCCAUUUCGGACG (structured_RNA, 5' Thiol-C6) [minRCRB-Cy3]: the Kd with Hfq102 (wild-type Hfq) [3] was 13.9 ± 1.5 nM hexamer.

Consider GUGGUCAGUCGAGUGGUUUUUU (ssRNA) [Target-U6], for which, in the data set with Hfq102 (wild-type Hfq) [4], the binding result is “binds”.

On to CGAAUUUUUUAAGUGC (ssRNA) [D16-FAM], for which the results for the Kd (with Hfq102 (wild-type Hfq) [5]; in data set [6]) were 15.5 ± 0.9 nM hexamer and 20 ± 1.3 nM hexamer, respectively.

Take GUGGUCAGUCGAGUGGAAAAAAAAAAAAAAAAAA (ssRNA) [Target-A18]: the binding result with Hfq102 (wild-type Hfq) [7] is recorded as “binds”.

B3: Bacillus subtilis Hfq: Hfq of Bacillus subtilis (protein, UniProt O31796 1-73, looked up)
RNA-binding protein Hfq: MKPINIQDQFLNQIRKENTYVTVFLLNGFQLRGQVKGFDNFTVLLESEGKQQLIYKHAISTFAPQKNVQLELE
Consider B3, for which the “in vitro RNA annealing activity” value in [8] is “inactive”.

B4: D16-FAM·R16 (dsRNA)
RNA 1: CGAAUUUUUUAAGUGC
RNA 2: GCACUUAAAAAAUUCG
Turning to B4, the Kd with Hfq102 (wild-type Hfq) [9] was 117 ± 12 nM hexamer.

Regarding TATCCGTATGACGTTCCGGACTATGCGGCTAAGGGGCAATCTTTAC (structured_DNA) [DNA1], the binding result in [10] was “binds”.
